Consider 4 molecules from PMC4007472, “Evidence for Steric Regulation of Fibrinogen Binding to Staphylococcus aureus Fibronectin-binding Protein A (FnBPA)*” (The Journal of Biological Chemistry, 2014).

T1: Intact human plasma fibrinogen (Fg) (human, UniProt P02671-2 20-644; P02675 31-491; P02679-2 27-437)
T1 construct: Fibrinogen Aα chain, human, from plasma; Fibrinogen Bβ chain, human, from plasma; Fibrinogen γ chain, human, from plasma; 341 kDa dimer of heterotrimers Aα, Bβ, γ; source: bought: Calbiochem-Merck-Millipore (human plasma, product no. 341576); in human plasma for the pulldown; copies: 2 + 2 + 2
T1 sequence (looked up) 1: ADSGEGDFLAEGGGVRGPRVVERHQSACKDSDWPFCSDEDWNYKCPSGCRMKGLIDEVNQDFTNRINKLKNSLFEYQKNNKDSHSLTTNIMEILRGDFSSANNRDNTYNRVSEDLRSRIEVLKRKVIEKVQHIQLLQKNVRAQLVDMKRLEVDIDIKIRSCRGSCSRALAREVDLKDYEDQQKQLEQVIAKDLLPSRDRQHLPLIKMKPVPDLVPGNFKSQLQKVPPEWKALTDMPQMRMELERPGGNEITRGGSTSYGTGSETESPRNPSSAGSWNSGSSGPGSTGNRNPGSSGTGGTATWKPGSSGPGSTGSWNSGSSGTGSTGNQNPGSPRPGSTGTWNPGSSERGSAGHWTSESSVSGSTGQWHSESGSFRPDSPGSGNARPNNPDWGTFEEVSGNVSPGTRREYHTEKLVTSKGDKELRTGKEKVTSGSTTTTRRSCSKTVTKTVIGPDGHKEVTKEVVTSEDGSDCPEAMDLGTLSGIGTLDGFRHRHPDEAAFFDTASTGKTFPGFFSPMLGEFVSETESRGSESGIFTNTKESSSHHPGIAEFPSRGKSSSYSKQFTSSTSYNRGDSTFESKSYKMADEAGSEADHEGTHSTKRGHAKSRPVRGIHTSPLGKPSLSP
T1 sequence (looked up) 2: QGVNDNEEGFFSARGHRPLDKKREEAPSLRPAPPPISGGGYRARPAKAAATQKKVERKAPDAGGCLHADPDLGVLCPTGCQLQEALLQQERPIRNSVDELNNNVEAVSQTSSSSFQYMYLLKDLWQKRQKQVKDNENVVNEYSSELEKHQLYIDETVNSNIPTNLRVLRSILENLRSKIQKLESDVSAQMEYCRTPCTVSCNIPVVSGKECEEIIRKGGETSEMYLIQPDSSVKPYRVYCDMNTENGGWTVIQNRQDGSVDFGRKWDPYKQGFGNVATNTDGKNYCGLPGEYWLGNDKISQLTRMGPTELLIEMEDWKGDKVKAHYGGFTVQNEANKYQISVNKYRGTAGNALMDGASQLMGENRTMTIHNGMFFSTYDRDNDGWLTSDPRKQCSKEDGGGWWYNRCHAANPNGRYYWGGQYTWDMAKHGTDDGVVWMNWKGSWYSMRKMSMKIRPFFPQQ
T1 sequence (looked up) 3: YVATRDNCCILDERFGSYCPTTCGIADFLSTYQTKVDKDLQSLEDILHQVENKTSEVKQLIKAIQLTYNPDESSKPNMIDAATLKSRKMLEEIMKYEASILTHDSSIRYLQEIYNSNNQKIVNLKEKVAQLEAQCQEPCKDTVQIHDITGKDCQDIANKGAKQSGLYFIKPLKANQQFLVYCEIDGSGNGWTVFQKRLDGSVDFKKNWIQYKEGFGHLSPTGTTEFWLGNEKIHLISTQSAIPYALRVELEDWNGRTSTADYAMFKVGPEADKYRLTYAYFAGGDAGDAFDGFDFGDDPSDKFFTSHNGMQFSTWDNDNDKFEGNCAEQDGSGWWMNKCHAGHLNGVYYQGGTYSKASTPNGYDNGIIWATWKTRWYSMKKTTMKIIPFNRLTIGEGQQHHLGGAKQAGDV

T2: rFnBPA(189–505) (S. aureus 8325-4, UniProt P14738 189-505)
T2 construct: Cloned in pET-YSBLIC-3C; also called N2N3 (without latch); not shown: His6, N-terminal, cleaved
T2 sequence: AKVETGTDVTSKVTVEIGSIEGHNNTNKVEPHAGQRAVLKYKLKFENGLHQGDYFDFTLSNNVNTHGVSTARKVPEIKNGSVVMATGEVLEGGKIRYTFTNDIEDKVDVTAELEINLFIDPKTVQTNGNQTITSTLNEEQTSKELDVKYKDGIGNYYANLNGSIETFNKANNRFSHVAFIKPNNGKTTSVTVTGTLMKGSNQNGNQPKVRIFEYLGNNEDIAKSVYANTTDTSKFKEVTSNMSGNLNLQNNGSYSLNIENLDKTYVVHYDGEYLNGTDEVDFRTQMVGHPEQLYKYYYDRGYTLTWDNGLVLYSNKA

T3: rFnBPA(189–511) (S. aureus 8325-4, UniProt P14738 189-511)
T3 construct: Cloned in pET-YSBLIC-3C; also called N2N3 domains including the latch strand; not shown: His6, N-terminal, cleaved
T3 sequence: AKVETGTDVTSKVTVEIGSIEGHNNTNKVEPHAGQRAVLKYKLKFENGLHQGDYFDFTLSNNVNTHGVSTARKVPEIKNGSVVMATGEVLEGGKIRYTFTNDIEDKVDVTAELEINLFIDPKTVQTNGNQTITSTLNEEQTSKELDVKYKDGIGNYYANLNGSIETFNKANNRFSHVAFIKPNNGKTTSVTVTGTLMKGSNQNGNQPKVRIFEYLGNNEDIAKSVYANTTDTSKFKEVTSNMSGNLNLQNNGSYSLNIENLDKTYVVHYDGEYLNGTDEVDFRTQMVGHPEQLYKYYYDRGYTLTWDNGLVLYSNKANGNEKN

B1: AF1 (rFnBPA(189–550)) (domain or fragment)
chain: AKVETGTDVTSKVTVEIGSIEGHNNTNKVEPHAGQRAVLKYKLKFENGLHQGDYFDFTLSNNVNTHGVSTARKVPEIKNGSVVMATGEVLEGGKIRYTFTNDIEDKVDVTAELEINLFIDPKTVQTNGNQTITSTLNEEQTSKELDVKYKDGIGNYYANLNGSIETFNKANNRFSHVAFIKPNNGKTTSVTVTGTLMKGSNQNGNQPKVRIFEYLGNNEDIAKSVYANTTDTSKFKEVTSNMSGNLNLQNNGSYSLNIENLDKTYVVHYDGEYLNGTDEVDFRTQMVGHPEQLYKYYYDRGYTLTWDNGLVLYSNKANGNEKNGPIIQNNKFEYKEDTIKETLTGQYDKNLVTTVEEEYDSS
notes: Cloned in pET-YSBLIC-3C; not shown: His6, N-terminal, cleaved
B2: FgγC (synthetic peptide, 17 C-terminal residues of the Fg γA chain) (peptide)
peptide: Ac-GEGQQHHLGGAKQAGDV-NH2
notes: Fibrinogen γA chain, human, the 17 C-terminal residues; also called Fg peptide; source: synthetic peptide (Severn Biotech Ltd.)
B3: NTD (30-kDa N-terminal proteolytic fragment of fibronectin) (domain or fragment)
chain: not shown
modifications: Limits not printed: conventional N-terminal 29-30 kDa fragment, mature residues 1-259 (1-5F1). N-terminal pyroglutamate, intradomain disulfides
B4: FgD (monomeric ~85-kDa proteolytic fragment of Fg) (domain or fragment)
chain 1: DNTYNRVSEDLRSRIEVLKRKVIEKVQHIQLLQKNVRAQLVDMKRLEVDIDIKIRSCRGSCSRALAREVDLKDYEDQQKQLEQVIAKDLLPSR
chain 2: DNENVVNEYSSELEKHQLYIDETVNSNIPTNLRVLRSILENLRSKIQKLESDVSAQMEYCRTPCTVSCNIPVVSGKECEEIIRKGGETSEMYLIQPDSSVKPYRVYCDMNTENGGWTVIQNRQDGSVDFGRKWDPYKQGFGNVATNTDGKNYCGLPGEYWLGNDKISQLTRMGPTELLIEMEDWKGDKVKAHYGGFTVQNEANKYQISVNKYRGTAGNALMDGASQLMGENRTMTIHNGMFFSTYDRDNDGWLTSDPRKQCSKEDGGGWWYNRCHAANPNGRYYWGGQYTWDMAKHGTDDGVVWMNWKGSWYSMRKMSMKIRPFFPQQ
chain 3: AIQLTYNPDESSKPNMIDAATLKSRKMLEEIMKYEASILTHDSSIRYLQEIYNSNNQKIVNLKEKVAQLEAQCQEPCKDTVQIHDITGKDCQDIANKGAKQSGLYFIKPLKANQQFLVYCEIDGSGNGWTVFQKRLDGSVDFKKNWIQYKEGFGHLSPTGTTEFWLGNEKIHLISTQSAIPYALRVELEDWNGRTSTADYAMFKVGPEADKYRLTYAYFAGGDAGDAFDGFDFGDDPSDKFFTSHNGMQFSTWDNDNDKFEGNCAEQDGSGWWMNKCHAGHLNGVYYQGGTYSKASTPNGYDNGIIWATWKTRWYSMKKTTMKIIPFNRLTIGEGQQHHLGGAKQAGDV
modifications: Limits not printed: conventional plasmin fragment D1 (mature Aalpha 105-197, Bbeta 134-461, gamma 63-411), ends may be ragged; gammaA C-terminus (AGDV) used because the UniProt canonical entry is …

Holding throughout (conditions): both partners purified
The target of assay [1] is Human plasma fibronectin (Fn) (human, Plasma form by convention: no EDB or EDA, disulfide-linked heterodimer of a V+ chain (V89 chosen) and a V0 chain; the real material is a splice mixture. N-terminal pyroglutamate, glycosylated). As to the kind of experiment: SPR; AF1 immobilised by amine coupling, Fn (5.2–0.01 nM) or NTD as analyte; kinetic analysis, Langmuir 1:1 fit; 25 °C, HBS-P+.

For assay [2], the target named is B3. As to the kind of experiment: ITC; MicroCal VP-ITC, PBS pH 7.4, 25 °C, single-site binding model; AF1 injected into NTD; AF1 with Fg. In general terms: ITC needs no label: the signal is the heat of the interaction.
Assay [3] addresses T1, Intact human plasma fibrinogen (Fg). Described as above.
Assay [4] deals with B1. As to the kind of experiment: SPR; NTD immobilised on a C1 chip; 0.5 μM AF1 + 0.5 μM Fg injected together, without or with 50 μM FgγC; 25 °C, HBS-P+. (Surface plasmon resonance follows binding to a sensor surface in real time, without labels.)
Assay [5] addresses T2, rFnBPA(189–505). The assay can be described thus: crystal structure; rFnBPA(189–505) 25 mg/ml with a 20-fold molar excess of FgγC; 1.83 Å.
Assay [6] deals with B1. The assay can be described thus: SPR; AF1 immobilised by amine coupling, Fn (5.2–0.01 nM) or NTD as analyte; kinetic analysis, Langmuir 1:1 fit; 25 °C, HBS-P+.
The target in assay [7] is B1. The assay can be described thus: ITC; MicroCal VP-ITC, PBS pH 7.4, 25 °C, single-site binding model; AF1 injected into NTD; AF1 with Fg.
For assay [8], the target named is T2, rFnBPA(189–505). The assay can be described thus: SPR; FgD immobilised by amine coupling, rFnBPA constructs as analytes in 2-fold dilutions; equilibrium (steady-state) analysis; 25 °C, HBS-P+ (10 mM HEPES pH 7.4, 150 mM NaCl, 0.05% polysorbate 20).
The target of assay [9] is B1. The assay is described as above.
Assay [10] deals with T3, rFnBPA(189–511). The assay is described as above.

By Kd is commonly meant the equilibrium constant for the complex coming apart. As usually defined, the stoichiometry N is a count of units in the complex or per binding partner. B1: the Kd in assay [1] was found to be 0.359 nM. In [2], the dH is -35.8 kcal/mol and the “stoichiometry N” value stood at 0.89. Moreover, in assay [3], the Kd is 1100 nM, the dH is -6.1 kcal/mol and the “stoichiometry N” value worked out at 2.11.
B2: the binding result in assay [4] and in assay [5] was “binds” each time.
For the molecule B3, the dissociation constant Kd in [6] came out at 0.393 nM; in assay [7] it was 0.7 nM.
Turning to B4, the Kd in assay [8] amounted to 3700 nM; in assay [9] it was 1500 nM; in [10], 1500 nM.
